In US20190038796A1:

Target: EGF-MMP (recombinant epidermal growth factor with N-terminal PLP reactive site AKT, polyhistidine tag and MMP cleavage site VPLSLYSG)
Assay: cell-based or functional assay

Chain of EGF-MMP (recombinant epidermal growth factor with N-terminal PLP reactive site AKT, polyhistidine tag and MMP cleavage site VPLSLYSG) (chain, as listed by the source limits assumed): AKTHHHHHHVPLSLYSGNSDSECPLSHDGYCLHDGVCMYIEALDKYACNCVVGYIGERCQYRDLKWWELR

EGF released from the conjugated PCL fiber mat after 4 hours of incubation with MMP-9 (ELISA): 20 ng/mg | EGF released from the conjugated PCL fiber mat over the first 10 minutes after the enzyme was added (ELISA) (ng EGF/mg PCL): 11
Substance: Recombinant, human pro-MMP-9 expressed in CHO cells, activated with amino-phenyl mercuric acetate (APMA) (from UniProt P14780 20-707) (enzyme)
